Reference: US20040235115A1

T1: streptokinase, P00779
T1 chain: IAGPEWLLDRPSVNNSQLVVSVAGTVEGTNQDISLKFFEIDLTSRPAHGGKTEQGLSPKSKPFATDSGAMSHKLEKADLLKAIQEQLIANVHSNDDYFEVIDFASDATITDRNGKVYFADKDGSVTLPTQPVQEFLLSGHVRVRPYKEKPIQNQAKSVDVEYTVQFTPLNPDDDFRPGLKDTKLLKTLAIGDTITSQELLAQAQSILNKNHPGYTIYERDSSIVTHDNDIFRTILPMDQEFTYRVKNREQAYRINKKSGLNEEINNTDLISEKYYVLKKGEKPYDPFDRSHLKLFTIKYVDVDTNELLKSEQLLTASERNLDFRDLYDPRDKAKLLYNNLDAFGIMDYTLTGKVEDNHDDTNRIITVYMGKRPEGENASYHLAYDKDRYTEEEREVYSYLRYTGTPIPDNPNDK

B1: loop 7 chimeric microplasminogen (protein)
chain: APSFDCGKPQVEPKKCPGRVVGGCVAHPHSWPWQVSLRTRFGMHFCGGTLISPEWVLTAAHCLEKSPRPSSYKVILGAHQEVNLEPHVQEIEVSRLFLHPDSQPDTIDHDIALLKLSSPAVITDKVIPACLPSPNYVVADRTECFITGWGETQGTFGAGLLKEAQLPVIENKVCNRYEFLNGRVQSTELCAGHLAGGTDSCQGDSGGPLVCFEKDKYILQGVTSWGLGCARPNKPGVYVRVSRFVTWIEGVMRNN
B2: loop 3 chimeric microplasminogen (protein)
chain: APSFDCGKPQVEPKKCPGRVVGGCVAHPHSWPWQVSLRLNGAHFCGGTLISPEWVLTAAHCLEKSPRPSSYKVILGAHQEVNLEPHVQEIEVSRLFLEPTRKDIALLKLSSPAVITDKVIPACLPSPNYVVADRTECFITGWGETQGTFGAGLLKEAQLPVIENKVCNRYEFLNGRVQSTELCAGHLAGGTDSCQGDSGGPLVCFEKDKYILQGVTSWGLGCARPNKPGVYVRVSRFVTWIEGVMRNN
B3: loop 5 chimeric microplasminogen (protein)
chain: APSFDCGKPQVEPKKCPGRVVGGCVAHPHSWPWQVSLRTRFGMHFCGGTLISPEWVLTAAHCLEDAADGKVKVILGAHQEVNLEPHVQEIEVSRLFLEPTRKDIALLKLSSPAVITDKVIPACLPSPNYVVADRTECFITGWGETQGTFGAGLLKEAQLPVIENKVCNRYEFLNGRVQSTELCAGHLAGGTDSCQGDSGGPLVCFEKDKYILQGVTSWGLGCARPNKPGVYVRVSRFVTWIEGVMRNN

Target: T1, streptokinase, P00779

Row | Protein | activation of microplasminogen by streptokinase (S2251 cleavage, A405)
1 | B1 | all three loop mutants were not efficiently activated by the bacterial plasminogen activator streptokinase
2 | B2 | all three loop mutants were not efficiently activated by the bacterial plasminogen activator streptokinase
3 | B3 | all three loop mutants were not efficiently activated by the bacterial plasminogen activator streptokinase
